To fix the notation:
B1: Hairpin Ribozyme (parent)
chain: GUCCUCUUUCACGUGCGCGUGAAAGAGAGAAGUGAACCAGAGAAACACACGUUGUGGUAUAUUACCUGGUA

In the data set the parent is B1. Briefly: self-cleavage, relative activity (ratio to wild type); higher = more cleavage; co-transcriptional.
With C18G U63G, the self-cleavage was found to be 0.27. In the case of C18G U63C it was 0.276; in that of G17U G69C, 0.296. In the case of C18G A43G it was 0.0801; in that of C18A C46G, 0.12. The same measure for C18G A45U: 0.228. For the variant G17C C66U, the self-cleavage is 0.346. On to G17C A22U, for which the self-cleavage came out at 0.644. The same measure for C18U A24U: 0.844; for C18U A24G: 1.04; for C18G G27A: 0.407. Take G17U U20A: the self-cleavage stood at 0.59. Consider G17A G25U, for which the self-cleavage was determined as 0.494.

Consider G17C A30G, for which the self-cleavage is 0.0659. As for G17C A30U, the self-cleavage was found to be 0.118. Turning to C18U C66U, the self-cleavage came to 0.554. Turning to G17A G19U, the self-cleavage was found to be 1.02. As to C18A G27U, the self-cleavage is 0.332. The same measure for C18G C46U: 0.0966; for C16U U67A: 0.325. For G17C C50U, the self-cleavage stood at 0.286. The same measure for G17C C50A: 0.248; for C18U A47G: 0.15. In the case of G17C U55C it was 0.216.

Turning to C18G G57C, the self-cleavage was 0.194. In the case of C18A A26G it was 0.888; in that of C18A A26C, 0.527. In the case of C18A A26U, the self-cleavage came out at 0.898. In the case of C16U U52G it was 0.761; in that of G17A A43G, 0.0835. In the case of C18A A44C it was 0.219. In the case of G17U A45C it was 0.156; in that of G17A U60C, 1.36; in that of C18U G57C, 0.157. Regarding G17C A59U, the self-cleavage worked out at 0.122. In the case of C18A G32U it was 0.135; in that of C18G A71C, 1.35. For the variant C18G G68C, the self-cleavage came to 0.266. The same measure for C16U U70G: 0.722. In the case of G17C G42U it was 0.134; in that of G17C G42C, 0.306; in that of C18G C65U, 0.213.

For the variant C18G C65A, the self-cleavage was found to be 0.871.

In the case of G17U C48G, the self-cleavage was 0.0807.

In the case of G17U C48U, the self-cleavage came out at 0.11. Regarding G17C C18U, the self-cleavage worked out at 0.902. As to G17A A64C, the self-cleavage came out at 0.143. Take C16U G57A: the self-cleavage was found to be 0.272. The same measure for G17C U62A: 0.115. On to G17U G56A, for which the self-cleavage came out at 0.194.

For G17U G56C, the self-cleavage worked out at 0.126.

Take G17U A64U: the self-cleavage is 0.16. The same measure for G17U A64C: 0.245. The same measure for C18G A30U: 0.0888; for C18G A30C: 0.275. With G17U C37G, the self-cleavage is 0.256.

As to G17U C37U, the self-cleavage is 0.564.

Regarding G17U A59G, the self-cleavage turned out to be 0.192. G17C G27U: the self-cleavage turned out to be 0.116. The same measure for G17C G27C: 0.154; for G17C G27A: 0.419.

With C16U G68A, the self-cleavage stood at 0.283. Turning to C18A U20C, the self-cleavage is 0.97.

G17U C65A: the self-cleavage was determined as 0.892. The same measure for G17U C65G: 0.269; for C18U G27A: 0.433; for C18A C48G: 0.0794. In the case of G17A G32U it was 0.123. The same measure for G17A G32C: 0.0599.

Turning to C18G A35C, the self-cleavage is 0.797.

C18U A41U: the self-cleavage stood at 1.21. Turning to G17C A71G, the self-cleavage turned out to be 0.694. As to G17C A71C, the self-cleavage is 1.18.

Regarding G17A U20C, the self-cleavage turned out to be 1.13. In the case of G17C A64C it was 0.186; in that of C18A A45G, 0.187; in that of G17A C48U, 0.176. The same measure for G17C A41U: 1.27; for C16U G69C: 0.396. In the case of C18U G51U it was 0.993; in that of C18A A31U, 0.0438. Take C18A A31G: the self-cleavage worked out at 0.746.

As for C18U U33C, the self-cleavage amounted to 0.172. C18U U33G: the self-cleavage is 0.0901.

Turning to G17U U33A, the self-cleavage is 0.116. With G17C G56U, the self-cleavage is 0.185. The same measure for G17C G56C: 0.171; for G17U G25A: 0.653; for G17U G25C: 0.682. The same measure for C18G G51C: 1.01; for C18U A23C: 0.898.

For the variant C18U A23U, the self-cleavage turned out to be 0.997. Take G17U C50U: the self-cleavage was determined as 0.326. Regarding G17U C50A, the self-cleavage turned out to be 0.232.

On to C18A A59C, for which the self-cleavage came to 0.159. In the case of G17A C37U it was 0.463. In the case of C18A C37G it was 0.351; in that of C18G G29C, 0.133. As to C18U U55C, the self-cleavage was found to be 0.318. The same measure for G17C A43C: 0.118. Regarding G17C A43G, the self-cleavage stood at 0.131. In the case of C18G C50U, the self-cleavage worked out at 0.24. The same measure for C18A G56C: 0.136. Take C18G A28C: the self-cleavage is 0.445. Take C18G A28G: the self-cleavage was found to be 1.11. C18G G56U: the self-cleavage worked out at 0.2. In the case of G17C U58G it was 0.432. The same measure for G17C G51A: 0.718; for G17C G51C: 0.668.

In the case of G17U G68A, the self-cleavage stood at 0.258. Consider C18G C38U, for which the self-cleavage amounted to 0.44. In the case of C18U A28U it was 0.606; in that of C18U A28C, 0.66. Turning to C18A G21A, the self-cleavage is 0.895. The same measure for C18A G21C: 0.885. In the case of G17U C38G, the self-cleavage is 0.158. In the case of G17A A39U, the self-cleavage is 0.44. In the case of G17C G40C it was 0.168. In the case of G17C G40A it was 0.253; in that of C18A G34C, 1.56; in that of G17U A30G, 0.134.

Consider C18U C46A, for which the self-cleavage is 0.252. C18U G25C: the self-cleavage came out at 0.491. Regarding C18U G25A, the self-cleavage was 0.703.

As for C18U U52G, the self-cleavage was 0.859.

As for C18U U52C, the self-cleavage came out at 0.928. In the case of G17U A49C it was 0.177. Turning to C18A U63G, the self-cleavage came out at 0.204.

Turning to C18A U63A, the self-cleavage was 0.13. In the case of G17U A26U it was 0.632; in that of C18A U70A, 0.916. On to G17C G21A, for which the self-cleavage was determined as 0.618.

G17C G21C: the self-cleavage worked out at 0.494. In the case of G17U G27A it was 0.374; in that of G17U G27U, 0.239; in that of G17U G27C, 0.165.

Take C18A U55G: the self-cleavage came to 0.296. C18A U55A: the self-cleavage worked out at 0.364.

In the case of G17U U63A, the self-cleavage stood at 0.128. On to G17C G68C, for which the self-cleavage is 0.238.

Consider C18G A24C, for which the self-cleavage came to 0.731. With C18G A24G, the self-cleavage is 0.927. Regarding G17A G27C, the self-cleavage worked out at 0.074. With G17U A44G, the self-cleavage is 0.273. With G17U G19A, the self-cleavage turned out to be 0.629. Regarding G17U A39G, the self-cleavage was determined as 0.29. On to G17A C18A, for which the self-cleavage is 1.2. The same measure for G17U A47C: 0.347. For the variant C18A A39U, the self-cleavage came to 0.345. The same measure for C18A A39C: 0.538; for C18U A43C: 0.164. Turning to C18G U20G, the self-cleavage worked out at 0.724.

As for G17C C37U, the self-cleavage came to 0.542. The same measure for G17U G21A: 0.491.

With C18A G69C, the self-cleavage turned out to be 0.403.

In the case of C18A G69U, the self-cleavage was 0.339. The same measure for G17U A43C: 0.0947; for G17U A43U: 0.0903; for C18A A41U: 1.37. In the case of G17U A71C it was 1.39; in that of C18U A30U, 0.203; in that of C18U G19U, 1.1. For the variant G17C A26G, the self-cleavage is 0.709. Turning to G17C A26U, the self-cleavage turned out to be 0.414. Turning to C18A A49C, the self-cleavage came out at 0.208. In the case of G17C G19U it was 0.502; in that of G17U U62C, 0.138.

The values are drawn from the RNAGym collection of RNA variant scans (doi:10.7554/elife.80360).
